Test results: PMC5714165 (Nucleic Acids Research, 2017)
Each block holds one molecule with its values, some of them ahead of it.

Key:
[1] = molecular target: eIF2α-NTD_(S51D) (phosphomimetic N-terminal domain of eIF2α, aa 1–184) (human); assay: fluorescence polarisation
[2] = molecular target: T1, eIF2Bβ (human, UniProt P49770 1-351); assay: SEC
T1 sequence: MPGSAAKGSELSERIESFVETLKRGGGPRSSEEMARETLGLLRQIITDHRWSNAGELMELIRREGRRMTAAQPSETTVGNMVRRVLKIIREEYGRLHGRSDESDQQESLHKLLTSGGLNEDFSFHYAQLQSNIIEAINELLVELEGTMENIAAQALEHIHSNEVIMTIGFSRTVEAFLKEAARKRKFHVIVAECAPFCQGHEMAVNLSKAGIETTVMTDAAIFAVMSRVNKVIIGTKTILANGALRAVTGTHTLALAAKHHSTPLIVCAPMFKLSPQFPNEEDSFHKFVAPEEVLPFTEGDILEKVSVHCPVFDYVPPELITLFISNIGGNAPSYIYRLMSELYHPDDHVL

- fold higher affinity than for WT eIF2α-NTD [1]: < 2 fold
Molecule: eIF2Breg (eIF2B regulatory subcomplex of eIF2Bα, β and δ), reconstituted from individual subunits (from UniProt Q14232;P49770;Q9UI10)

- binding result [2]: binds
B1: eIF2Bα_(I301E/L305D) mutant (designated as eIF2Bα in the paper) (natural protein)
chain: MDDKELIEYFKSQMKEDPDMASAVAAIRTLLEFLKRDKGETIQGLRANLTSAIETLCGVDSSVAVSSGGELFLRFISLASLEYSDYSKCKKIMIERGELFLRRISLSRNKIADLCHTFIKDGATILTHAYSRVVLRVLEAAVAAKKRFSVYVTESQPDLSGKKMAKALCHLNVPVTVVLDAAVGYIMEKADLVIVGAEGVVENGGIINKIGTNQMAVCAKAQNKPFYVVAESFKFVRLFPLNQQDVPDKFKYKADTLKVAQTGQDLKEEHPWVDYTAPSLITLLFTDLGVLTPSAVSDELEKLYD
